For 71 variants, amyloid nucleation score results are on record in the supplement of paper PMC12067230.

B1: V-17-M; numbered along this chain (parent)
chain: EASNCFAIRHFENKFAVETLICFNLFLNSQEKHY

± gives the uncertainty stated by the source.

Variants of B1 are the subject of this series. Nature of the series: amyloid nucleation score relative to WT ADan (yeast Sup35 reporter selection) (log enrichment difference); higher = more amyloid nucleation. As to the method:
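Deep mutational scan of the ADan peptide fused to the Sup35 nucleation domain (SupN) in S. cerevisiae [psi-pin-], covering all single amino-acid substitutions and stop truncations (truncations = sequence up to the stop). After 24 h Cu2+ induction, cells were selected on -ADE-URA plates for 7 d at 30 °C. The nucleation score is log enrichment (output/input, deep sequencing) minus that of WT ADan, as the error-weighted mean of 3 biological replicates (DiMSum).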
For EASNCFAIRHFENKFAMETLICFNLFLNSQEKHY [V17M], the amyloid nucleation score was -1.07 ± 0.17.
As to EASNCFAIRHFENKFAEETLICFNLFLNSQEKHY [V17E], the amyloid nucleation score is -1.74 ± 0.18.
EASNCFAIRHFENKFASETLICFNLFLNSQEKHY [V17S]: the amyloid nucleation score was 0.586 ± 0.096.
Turning to EASNCFAIRHFENKFANETLICFNLFLNSQEKHY [V17N], the amyloid nucleation score was -0.235 ± 0.19.
In the case of EASNCFAIRHFENKFAFETLICFNLFLNSQEKHY [V17F] it was -0.0103 ± 0.15; in that of EASNCFAIRHFENKFALETLICFNLFLNSQEKHY [V17L], -0.705 ± 0.1.
With EASNCFAIRHFENKFAPETLICFNLFLNSQEKHY [V17P], the amyloid nucleation score was determined as 0.114 ± 0.3.
The value for EASNCFAIRHFENKFATETLICFNLFLNSQEKHY [V17T] was -0.513 ± 0.17; that for EASNCFAIRHFENKFAIETLICFNLFLNSQEKHY [V17I] was 0.523 ± 0.2; that for EASNCFAIRHFENKFAGETLICFNLFLNSQEKHY [V17G] was 0.953 ± 0.098.
The value for EASNCFAIRHFENKFADETLICFNLFLNSQEKHY [V17D] was -0.492 ± 0.18; that for EASNCFAIRHFENKFAYETLICFNLFLNSQEKHY [V17Y] was -2.81 ± 0.43; that for EASNCFAIRHFENKFAAETLICFNLFLNSQEKHY [V17A] was 0.689 ± 0.12.
In the case of EASNCFAIRHFENKFACETLICFNLFLNSQEKHY [V17C] it was 0.711 ± 0.14; in that of EASNCFAIRHFENKFAKETLICFNLFLNSQEKHY [V17K], 0.416 ± 0.18.
EASNCFAIRHFENKFAWETLICFNLFLNSQEKHY [V17W]: the amyloid nucleation score was -0.301 ± 0.14.
In the case of EASNCFAIRHFENKFAHETLICFNLFLNSQEKHY [V17H] it was -1.16 ± 0.56; in that of EASNCFAIRHFENKFAQETLICFNLFLNSQEKHY [V17Q], -1.12 ± 0.23.
The value for EASNCFAIRHFENKFARETLICFNLFLNSQEKHY [V17R] was 0.126 ± 0.11; that for EASNCFAIRHFENKFAVECLICFNLFLNSQEKHY [T19C] was -2.47 ± 0.27.
For EASNCFAIRHFENKFAVEFLICFNLFLNSQEKHY [T19F], the amyloid nucleation score was -3.39 ± 0.4.
Regarding EASNCFAIRHFENKFAVESLICFNLFLNSQEKHY [T19S], the amyloid nucleation score worked out at 0.268 ± 0.11.
For the variant EASNCFAIRHFENKFAVENLICFNLFLNSQEKHY [T19N], the amyloid nucleation score was 0.196 ± 0.16.
Turning to EASNCFAIRHFENKFAVEMLICFNLFLNSQEKHY [T19M], the amyloid nucleation score is -1.99 ± 0.54.
Take EASNCFAIRHFENKFAVEILICFNLFLNSQEKHY [T19I]: the amyloid nucleation score is -3.44 ± 0.43.
In the case of EASNCFAIRHFENKFAVEWLICFNLFLNSQEKHY [T19W] it was -2.17 ± 0.28.
Consider EASNCFAIRHFENKFAVEKLICFNLFLNSQEKHY [T19K], for which the amyloid nucleation score was 0.347 ± 0.17.
With EASNCFAIRHFENKFAVEGLICFNLFLNSQEKHY [T19G], the amyloid nucleation score was 0.166 ± 0.098.
The value for EASNCFAIRHFENKFAVEQLICFNLFLNSQEKHY [T19Q] was 0.45 ± 0.2; that for EASNCFAIRHFENKFAVEALICFNLFLNSQEKHY [T19A] was -2.16 ± 0.23; that for EASNCFAIRHFENKFAVERLICFNLFLNSQEKHY [T19R] was 0.563 ± 0.1.
With EASNCFAIRHFENKFAVELLICFNLFLNSQEKHY [T19L], the amyloid nucleation score is -4.84 ± 0.63.
Consider EASNCFAIRHFENKFAVEELICFNLFLNSQEKHY [T19E], for which the amyloid nucleation score is -0.714 ± 0.17.
In the case of EASNCFAIRHFENKFAVEDLICFNLFLNSQEKHY [T19D] it was -0.804 ± 0.17; in that of EASNCFAIRHFENKFAVEVLICFNLFLNSQEKHY [T19V], -3.41 ± 0.34; in that of EASNCFAIRHFENKFAVEYLICFNLFLNSQEKHY [T19Y], -0.511 ± 0.18.
The value for EASNCFAIRHFENKFAVEHLICFNLFLNSQEKHY [T19H] was -0.0921 ± 0.27; that for EASNCFAIRHFENKFAVEPLICFNLFLNSQEKHY [T19P] was 0.859 ± 0.18; that for EASNCFAIRHFENKFAVETLACFNLFLNSQEKHY [I21A] was -0.465 ± 0.13.
In the case of EASNCFAIRHFENKFAVETLECFNLFLNSQEKHY [I21E] it was -0.48 ± 0.17; in that of EASNCFAIRHFENKFAVETLQCFNLFLNSQEKHY [I21Q], 0.332 ± 0.19; in that of EASNCFAIRHFENKFAVETLCCFNLFLNSQEKHY [I21C], 0.511 ± 0.13.
Turning to EASNCFAIRHFENKFAVETLNCFNLFLNSQEKHY [I21N], the amyloid nucleation score turned out to be 0.877 ± 0.15.
In the case of EASNCFAIRHFENKFAVETLFCFNLFLNSQEKHY [I21F] it was 0.0204 ± 0.11; in that of EASNCFAIRHFENKFAVETLYCFNLFLNSQEKHY [I21Y], 0.68 ± 0.17; in that of EASNCFAIRHFENKFAVETLDCFNLFLNSQEKHY [I21D], -3.79 ± 0.7.
The value for EASNCFAIRHFENKFAVETLLCFNLFLNSQEKHY [I21L] was -0.0345 ± 0.097.
In the case of EASNCFAIRHFENKFAVETLPCFNLFLNSQEKHY [I21P], the amyloid nucleation score is -3.66 ± 0.62.
As to EASNCFAIRHFENKFAVETLKCFNLFLNSQEKHY [I21K], the amyloid nucleation score is -0.182 ± 0.17.
For EASNCFAIRHFENKFAVETLGCFNLFLNSQEKHY [I21G], the amyloid nucleation score is -0.00868 ± 0.097.
For the variant EASNCFAIRHFENKFAVETLRCFNLFLNSQEKHY [I21R], the amyloid nucleation score was -1.05 ± 0.12.
In the case of EASNCFAIRHFENKFAVETLHCFNLFLNSQEKHY [I21H] it was 0.679 ± 0.27; in that of EASNCFAIRHFENKFAVETLWCFNLFLNSQEKHY [I21W], 0.109 ± 0.13.
Consider EASNCFAIRHFENKFAVETLSCFNLFLNSQEKHY [I21S], for which the amyloid nucleation score was 0.32 ± 0.097.
For EASNCFAIRHFENKFAVETLTCFNLFLNSQEKHY [I21T], the amyloid nucleation score was determined as 0.7 ± 0.12.
As for EASNCFAIRHFENKFAVETLMCFNLFLNSQEKHY [I21M], the amyloid nucleation score is -0.308 ± 0.15.
The value for EASNCFAIRHFENKFAVETLVCFNLFLNSQEKHY [I21V] was -0.0338 ± 0.098.
The value for EASNCFAIRHFENKFAVNTLICFNLFLNSQEKHY [E18N] was 0.236 ± 0.18; that for EASNCFAIRHFENKFAVTTLICFNLFLNSQEKHY [E18T] was -1.61 ± 0.21; that for EASNCFAIRHFENKFAVDTLICFNLFLNSQEKHY [E18D] was 0.406 ± 0.15.
In the case of EASNCFAIRHFENKFAVATLICFNLFLNSQEKHY [E18A] it was -0.809 ± 0.17.
Regarding EASNCFAIRHFENKFAVHTLICFNLFLNSQEKHY [E18H], the amyloid nucleation score was -0.855 ± 0.27.
The value for EASNCFAIRHFENKFAVCTLICFNLFLNSQEKHY [E18C] was -1.06 ± 0.17; that for EASNCFAIRHFENKFAVPTLICFNLFLNSQEKHY [E18P] was 0.645 ± 0.28.
For EASNCFAIRHFENKFAVMTLICFNLFLNSQEKHY [E18M], the amyloid nucleation score is -3.07 ± 0.39.
With EASNCFAIRHFENKFAVYTLICFNLFLNSQEKHY [E18Y], the amyloid nucleation score was -5.47 ± 1.1.
Regarding EASNCFAIRHFENKFAVVTLICFNLFLNSQEKHY [E18V], the amyloid nucleation score was -2.72 ± 0.29.
In the case of EASNCFAIRHFENKFAVQTLICFNLFLNSQEKHY [E18Q] it was -0.141 ± 0.22; in that of EASNCFAIRHFENKFAVSTLICFNLFLNSQEKHY [E18S], -0.355 ± 0.11; in that of EASNCFAIRHFENKFAVKTLICFNLFLNSQEKHY [E18K], 0.239 ± 0.16.
In the case of EASNCFAIRHFENKFAVRTLICFNLFLNSQEKHY [E18R] it was -0.108 ± 0.1.
